{
  "source": "patent US20060154864",
  "about": "“Transcript factor and an Akt substrate related to transcriptional action of insulin and applications of same” (Emory University, published 2006)",
  "molecules": {"B1": {"name": "IGFBP-3 IRE (dsDNA)", "DNA 1": "AATTCAAGGGTATCCAGGAAAGTCTCCTTCAAG", "DNA 2": "CTTGAAGGAGACTTTCCTGGATACCCTTGAATT"}},
  "key": {"[1]": {"system": "IRE-BP1 C-terminal fragment (3.4-kb cDNA) (Rattus norvegicus)", "experiment": "cell_activity"}, "NFkB p50": {"target": "NFkB p50 (UniProt P19838 P19838:1-433)", "sequence (P19838 1-433, one chain of several)": "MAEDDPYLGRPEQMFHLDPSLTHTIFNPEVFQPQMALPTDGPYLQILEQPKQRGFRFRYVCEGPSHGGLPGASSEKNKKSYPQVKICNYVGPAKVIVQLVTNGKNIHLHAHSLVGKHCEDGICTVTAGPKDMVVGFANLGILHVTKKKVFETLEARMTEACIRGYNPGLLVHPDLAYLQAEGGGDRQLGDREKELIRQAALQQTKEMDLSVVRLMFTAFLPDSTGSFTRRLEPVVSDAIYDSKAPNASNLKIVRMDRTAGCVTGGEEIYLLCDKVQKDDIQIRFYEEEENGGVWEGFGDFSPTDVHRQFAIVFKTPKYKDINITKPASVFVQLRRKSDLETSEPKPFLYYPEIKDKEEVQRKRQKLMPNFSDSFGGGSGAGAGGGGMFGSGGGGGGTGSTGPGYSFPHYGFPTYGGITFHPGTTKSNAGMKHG", "experiment": "EMSA; supershifted by p50 antibody", "settings": "tags: E. coli-expressed; chain copies: 2; label: 32P"}},
  "data": [
    {"molecule": "AATTCAAGGGTATCCAGGAAAGTCTCCTTCAAG (double strand) [IGFBP-3 IRE]", "values": [
      {"measurement": "activity", "setting": "[1]; COS-7 luciferase, 2-fold on control vector", "value": 14, "unit": "fold"}
    ]},
    {"molecule": "GCCTCATTATTCCTGCCCACCAAT (double strand) [IGF-1 IRE]", "values": [
      {"measurement": "activity", "setting": "[1]; COS-7 luciferase, basal, 3.5-fold with insulin", "value": 4.7, "unit": "fold"}
    ]},
    {"molecule": "GTTTGTTTTGCTAGT (double strand) [IGFBP-1 IRE]", "values": [
      {"measurement": "activity", "setting": "[1]; with insulin, vs 24.7% vector alone, no basal effect, SEQ 50 inferred", "value": 63.2, "unit": "% decrease"}
    ]},
    {"molecule": "B1", "values": [
      {"measurement": "binding result", "setting": "NFkB p50", "value": "binds"}
    ]}
  ]
}
